Data on one molecule can be found in patent US20250215499A1 (CHINESE UNIVERSITY OF HONG KONG, published 2025).

One test has as its target T1, BECN1 (UniProt Q14457 1-450, limits assumed).
T1 construct: The ubiquitination co-IPs used endogenous protein from T-REx-293 and KYSE150 cells; also called Beclin 1; Beclin 1/BECN1
In words: co-immunoprecipitation.

Another test addresses SQSTM1/p62 (UniProt Q13501 2-440, limits assumed). Kind of test: co-immunoprecipitation.

T1 sequence (Q14457 whole entry): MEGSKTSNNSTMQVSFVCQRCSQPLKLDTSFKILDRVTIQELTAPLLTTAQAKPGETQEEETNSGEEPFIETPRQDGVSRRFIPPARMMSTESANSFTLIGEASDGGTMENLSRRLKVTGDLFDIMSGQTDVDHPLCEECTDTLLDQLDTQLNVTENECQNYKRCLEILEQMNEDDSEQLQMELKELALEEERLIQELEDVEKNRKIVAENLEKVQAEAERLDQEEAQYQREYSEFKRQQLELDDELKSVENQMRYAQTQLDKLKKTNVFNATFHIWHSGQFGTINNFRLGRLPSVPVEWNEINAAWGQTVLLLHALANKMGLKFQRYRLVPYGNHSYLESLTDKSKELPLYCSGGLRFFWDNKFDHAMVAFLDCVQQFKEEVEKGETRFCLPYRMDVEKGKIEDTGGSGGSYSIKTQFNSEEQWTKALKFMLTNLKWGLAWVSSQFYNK

B1: SP0495 (small protein of KIAA0495), encoded by KIAA0495-ORF2 (other)
chain: MCLLSSSAASDLAATSLTAHPCHPPLPRQPQPQLILSGSPSIGTVPPPAVGHTSLLPVNPPAISTTTSDLSAREDATPSASTGHLSVFPAFQVKIPAVPSEQTSQSFSEASHRVLPGGGPRCSRDFGAGVAGHLGLGIFGVGFGSPALLQSVVDENSCCLLYVVEDQLCDVEQAFRAEHLGQHQSGSGTGCRHCPQRPAAL
notes: The 1-18 transmembrane/signal peptide domain is only a bioinformatic prediction and was not removed; also called KIAA0495-ORF2/SP0495; KIAA0495-ORF2 protein
Consider B1, for which the binding result with BECN1 and with SQSTM1/p62 was “no binding” in each case.
